Measurements as given in the supplement of paper PMC10065799, “High-throughput profiling of sequence recognition by tyrosine kinases and SH2 domains using bacterial peptide display” (eLife, 2023).

Legend:
AncSZ = experiment: phosphorylation enrichment, bacterial display (enrichment ratio); higher = better substrate or ligand; peptides without Tyr show the background
EPHB1 = EPHB1 (UniProt P54762); experiment: as above
EPHB2 = EPHB2 (UniProt P29323); experiment: as above
FGFR1 = FGFR1 (UniProt P11362); experiment: as above
FGFR3 = FGFR3 (UniProt P22607); experiment: as above
Fer (mouse) = experiment: as above
Fes = Fes (UniProt P07332); experiment: as above
Fyn = Fyn (UniProt P06241); experiment: as above
Hck = Hck (UniProt P08631); experiment: as above
Jak2 = Jak2 (UniProt O60674); experiment: as above
MERTK = MERTK (UniProt Q12866); experiment: as above
c-Abl (mouse) = experiment: as above
c-Src = experiment: as above
Grb2 SH2 = Grb2 SH2 (UniProt P62993); experiment: SH2 binding enrichment of the phosphorylated peptide, bacterial display (enrichment ratio); higher = better substrate or ligand; peptides without Tyr show the background
SHP2-C SH2 = experiment: as above
c-Src SH2 = experiment: as above
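Wherever SH2 binding enrichment of the phosphorylated peptide, bacterial display is given: peptide library displayed on the E. coli surface as eCPX fusions, selected cells deep-sequenced, score is each peptide's frequency after selection divided by its frequency in the input.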
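Wherever phosphorylation enrichment, bacterial display is given: 11-residue human phosphosite peptides and single-mutation variants displayed on the E. coli surface, counted by deep sequencing, each peptide's frequency after selection divided by its frequency in the unselected input library; frequency after pTyr selection over input frequency; kinase dosed for 20-30% of maximal phosphorylation in three min.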

Chain of EPHB1 (P54762 whole entry, looked up): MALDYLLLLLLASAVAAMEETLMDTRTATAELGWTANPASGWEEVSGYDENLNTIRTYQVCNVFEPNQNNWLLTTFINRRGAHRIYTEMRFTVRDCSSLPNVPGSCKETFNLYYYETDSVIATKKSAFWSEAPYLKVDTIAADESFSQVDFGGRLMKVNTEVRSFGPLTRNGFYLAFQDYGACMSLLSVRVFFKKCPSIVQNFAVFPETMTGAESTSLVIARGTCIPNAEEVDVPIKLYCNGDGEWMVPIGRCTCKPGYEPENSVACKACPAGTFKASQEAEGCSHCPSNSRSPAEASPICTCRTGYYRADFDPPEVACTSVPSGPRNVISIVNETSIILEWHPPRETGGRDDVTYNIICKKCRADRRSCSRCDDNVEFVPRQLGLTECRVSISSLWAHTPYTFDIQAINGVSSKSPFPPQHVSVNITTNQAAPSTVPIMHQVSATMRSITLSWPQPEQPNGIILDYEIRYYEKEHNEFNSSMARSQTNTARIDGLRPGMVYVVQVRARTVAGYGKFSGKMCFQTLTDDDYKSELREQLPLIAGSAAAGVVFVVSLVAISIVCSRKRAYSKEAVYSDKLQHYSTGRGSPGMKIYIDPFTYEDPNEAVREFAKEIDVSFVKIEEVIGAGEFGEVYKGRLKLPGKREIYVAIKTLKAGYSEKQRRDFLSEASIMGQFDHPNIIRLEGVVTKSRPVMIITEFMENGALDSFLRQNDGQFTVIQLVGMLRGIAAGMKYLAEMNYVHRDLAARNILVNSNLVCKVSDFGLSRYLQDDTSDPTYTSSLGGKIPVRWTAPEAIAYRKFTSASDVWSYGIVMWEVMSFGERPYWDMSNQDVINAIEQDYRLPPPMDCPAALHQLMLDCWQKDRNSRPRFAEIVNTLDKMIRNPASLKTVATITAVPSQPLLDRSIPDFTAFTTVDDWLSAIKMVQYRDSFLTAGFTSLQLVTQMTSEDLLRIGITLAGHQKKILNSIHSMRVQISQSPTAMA
Chain of Hck (P08631 whole entry, looked up): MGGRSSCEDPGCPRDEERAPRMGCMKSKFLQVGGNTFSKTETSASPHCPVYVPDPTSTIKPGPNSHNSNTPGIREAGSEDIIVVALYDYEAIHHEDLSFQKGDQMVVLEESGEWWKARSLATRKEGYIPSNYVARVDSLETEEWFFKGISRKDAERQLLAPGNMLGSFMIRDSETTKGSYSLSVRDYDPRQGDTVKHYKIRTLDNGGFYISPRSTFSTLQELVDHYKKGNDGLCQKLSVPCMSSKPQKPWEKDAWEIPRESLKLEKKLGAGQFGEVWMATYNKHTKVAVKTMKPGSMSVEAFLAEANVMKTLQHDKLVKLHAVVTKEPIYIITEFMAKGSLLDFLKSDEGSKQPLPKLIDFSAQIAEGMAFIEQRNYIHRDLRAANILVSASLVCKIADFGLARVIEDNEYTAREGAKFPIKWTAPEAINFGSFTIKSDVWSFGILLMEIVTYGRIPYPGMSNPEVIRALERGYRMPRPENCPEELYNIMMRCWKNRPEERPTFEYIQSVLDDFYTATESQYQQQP
Chain of Fyn (P06241 whole entry, looked up): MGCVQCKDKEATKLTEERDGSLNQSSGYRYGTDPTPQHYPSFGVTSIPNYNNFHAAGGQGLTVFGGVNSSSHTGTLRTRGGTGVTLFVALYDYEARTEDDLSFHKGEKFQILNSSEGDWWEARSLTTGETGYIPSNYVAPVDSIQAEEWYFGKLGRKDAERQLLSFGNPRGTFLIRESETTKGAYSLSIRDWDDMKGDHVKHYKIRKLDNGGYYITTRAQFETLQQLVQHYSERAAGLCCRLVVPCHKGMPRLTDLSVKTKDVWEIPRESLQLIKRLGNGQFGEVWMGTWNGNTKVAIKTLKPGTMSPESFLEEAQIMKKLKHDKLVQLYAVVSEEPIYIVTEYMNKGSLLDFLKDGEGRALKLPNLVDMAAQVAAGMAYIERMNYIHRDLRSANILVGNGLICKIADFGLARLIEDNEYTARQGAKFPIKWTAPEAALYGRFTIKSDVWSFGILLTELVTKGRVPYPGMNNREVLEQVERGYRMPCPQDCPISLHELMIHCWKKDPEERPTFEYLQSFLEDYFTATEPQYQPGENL
Chain of MERTK (Q12866 whole entry, looked up): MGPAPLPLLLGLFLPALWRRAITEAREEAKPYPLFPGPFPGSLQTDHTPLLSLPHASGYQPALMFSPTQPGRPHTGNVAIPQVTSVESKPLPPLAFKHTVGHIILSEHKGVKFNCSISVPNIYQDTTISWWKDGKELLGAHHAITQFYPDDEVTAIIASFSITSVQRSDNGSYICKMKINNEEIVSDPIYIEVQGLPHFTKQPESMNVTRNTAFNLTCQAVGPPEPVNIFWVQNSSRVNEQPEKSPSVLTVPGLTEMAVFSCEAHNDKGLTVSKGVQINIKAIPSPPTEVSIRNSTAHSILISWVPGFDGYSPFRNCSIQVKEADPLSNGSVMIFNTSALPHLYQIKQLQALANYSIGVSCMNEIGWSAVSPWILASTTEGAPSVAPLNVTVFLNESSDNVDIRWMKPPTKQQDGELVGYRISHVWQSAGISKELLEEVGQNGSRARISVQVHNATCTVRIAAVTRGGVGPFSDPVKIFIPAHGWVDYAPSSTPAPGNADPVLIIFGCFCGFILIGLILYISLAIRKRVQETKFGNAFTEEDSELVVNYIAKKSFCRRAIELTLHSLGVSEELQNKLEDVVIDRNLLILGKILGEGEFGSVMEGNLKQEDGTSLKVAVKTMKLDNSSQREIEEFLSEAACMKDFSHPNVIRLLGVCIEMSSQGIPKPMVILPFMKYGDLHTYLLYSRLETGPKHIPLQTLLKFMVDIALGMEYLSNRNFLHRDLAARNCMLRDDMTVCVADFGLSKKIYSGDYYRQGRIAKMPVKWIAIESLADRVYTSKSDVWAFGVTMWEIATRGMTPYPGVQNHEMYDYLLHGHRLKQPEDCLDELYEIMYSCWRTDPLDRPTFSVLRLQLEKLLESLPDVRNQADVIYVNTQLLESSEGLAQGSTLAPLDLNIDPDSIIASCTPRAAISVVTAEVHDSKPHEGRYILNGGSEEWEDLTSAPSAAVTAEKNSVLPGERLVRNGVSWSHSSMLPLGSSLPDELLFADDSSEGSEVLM
Chain of Jak2 (O60674 whole entry, looked up): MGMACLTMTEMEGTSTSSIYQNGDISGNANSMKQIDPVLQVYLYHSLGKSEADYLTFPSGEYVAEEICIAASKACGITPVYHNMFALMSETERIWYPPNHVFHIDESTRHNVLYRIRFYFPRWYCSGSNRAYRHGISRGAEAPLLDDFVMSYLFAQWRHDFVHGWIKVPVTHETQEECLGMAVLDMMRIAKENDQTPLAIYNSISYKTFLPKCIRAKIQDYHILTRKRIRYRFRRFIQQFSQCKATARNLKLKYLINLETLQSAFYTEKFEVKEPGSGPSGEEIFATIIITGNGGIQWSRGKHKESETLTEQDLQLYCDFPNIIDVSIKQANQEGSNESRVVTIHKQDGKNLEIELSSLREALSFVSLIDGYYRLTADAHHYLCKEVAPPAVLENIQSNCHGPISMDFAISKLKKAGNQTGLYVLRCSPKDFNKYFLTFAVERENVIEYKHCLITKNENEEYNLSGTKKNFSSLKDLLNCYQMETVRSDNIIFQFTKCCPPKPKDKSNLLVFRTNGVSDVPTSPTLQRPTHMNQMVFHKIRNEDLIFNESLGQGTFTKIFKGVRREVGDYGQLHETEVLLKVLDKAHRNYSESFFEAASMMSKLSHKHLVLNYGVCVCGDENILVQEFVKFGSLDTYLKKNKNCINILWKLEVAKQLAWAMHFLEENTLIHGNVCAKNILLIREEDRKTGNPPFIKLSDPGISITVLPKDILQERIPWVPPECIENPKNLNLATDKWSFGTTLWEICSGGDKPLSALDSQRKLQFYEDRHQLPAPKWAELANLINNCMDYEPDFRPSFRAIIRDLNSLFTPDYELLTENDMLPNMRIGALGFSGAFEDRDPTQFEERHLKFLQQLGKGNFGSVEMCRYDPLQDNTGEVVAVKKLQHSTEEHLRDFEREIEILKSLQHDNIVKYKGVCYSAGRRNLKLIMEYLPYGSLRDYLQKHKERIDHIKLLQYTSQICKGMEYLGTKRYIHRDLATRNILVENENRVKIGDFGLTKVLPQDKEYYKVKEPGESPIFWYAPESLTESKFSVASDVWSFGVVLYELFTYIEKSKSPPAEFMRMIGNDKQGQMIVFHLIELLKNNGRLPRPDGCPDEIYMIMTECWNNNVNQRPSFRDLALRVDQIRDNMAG
Chain of FGFR1 (P11362 whole entry, looked up): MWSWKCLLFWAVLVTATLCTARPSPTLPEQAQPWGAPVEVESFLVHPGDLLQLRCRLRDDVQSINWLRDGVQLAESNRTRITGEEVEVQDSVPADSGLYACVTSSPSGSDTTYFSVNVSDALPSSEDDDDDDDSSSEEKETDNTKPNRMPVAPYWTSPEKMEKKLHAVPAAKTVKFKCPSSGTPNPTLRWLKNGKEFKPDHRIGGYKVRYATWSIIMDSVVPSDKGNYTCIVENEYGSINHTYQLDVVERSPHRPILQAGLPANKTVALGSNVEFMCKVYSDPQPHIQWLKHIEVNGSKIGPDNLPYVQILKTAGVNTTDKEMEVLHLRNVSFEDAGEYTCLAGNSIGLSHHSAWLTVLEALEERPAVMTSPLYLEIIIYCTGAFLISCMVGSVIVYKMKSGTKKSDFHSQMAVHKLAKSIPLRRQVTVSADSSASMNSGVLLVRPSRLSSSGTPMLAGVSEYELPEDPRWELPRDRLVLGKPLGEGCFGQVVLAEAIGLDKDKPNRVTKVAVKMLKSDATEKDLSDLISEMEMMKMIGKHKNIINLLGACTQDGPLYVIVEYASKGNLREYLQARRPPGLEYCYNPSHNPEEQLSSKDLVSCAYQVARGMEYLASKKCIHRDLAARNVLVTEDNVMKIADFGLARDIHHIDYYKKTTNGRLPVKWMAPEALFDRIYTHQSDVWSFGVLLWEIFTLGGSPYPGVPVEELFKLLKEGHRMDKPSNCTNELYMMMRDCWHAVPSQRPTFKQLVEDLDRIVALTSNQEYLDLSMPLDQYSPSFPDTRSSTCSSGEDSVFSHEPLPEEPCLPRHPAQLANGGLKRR

Sequence	phosphorylation enrichment (AncSZ)	phosphorylation enrichment (EPHB1)	phosphorylation enrichment (EPHB2)	phosphorylation enrichment (FGFR1)	phosphorylation enrichment (FGFR3)	phosphorylation enrichment (Fer (mouse))	phosphorylation enrichment (Fes)	phosphorylation enrichment (Fyn)	phosphorylation enrichment (Hck)	phosphorylation enrichment (Jak2)	phosphorylation enrichment (MERTK)	phosphorylation enrichment (c-Abl (mouse))	phosphorylation enrichment (c-Src)	SH2 binding enrichment (Grb2 SH2)	SH2 binding enrichment (SHP2-C SH2)	SH2 binding enrichment (c-Src SH2)
VQNIVYHTASI [CYP39A1_Y102_R103H]	0.605	0.375	0.43	0.435	0.408	0.386	0.708	0.401	0.543	0.621	0.376	0.824	0.636	0.82	4.37	1.69
ALAHKYLGGGG [HBB_Y146_H147L]	0.378	0.324	0.387	0.307	0.325	0.269	0.389	0.366	0.347	0.464	0.407	0.289	0.278	1.01	0.608	0.503
RISRKYKKVRF [F8_Y442_G439S]	0.879	0.891	1.07	0.986	0.749	0.759	0.883	0.721	0.571	0.64	0.805	0.711	0.749	0.461	0.636	0.391
PKGTGYIKTES [STAT1_Y701_L706S]	0.588	0.504	0.449	0.604	0.487	0.392	1.2	0.466	0.525	1.22	0.553	0.868	0.601	0.997	0.427	0.425
AQAERYDDMAA [YWHAG_Y20_E15A]	0.871	0.577	0.595	0.469	0.67	0.529	0.881	0.478	0.476	0.954	0.389	0.668	0.439	0.858	0.699	2.79
WCKPLYFSCAV [MMS22L_Y28_P27L]	1.26	0.737	0.598	1.14	1.1	0.541	1.21	0.533	0.607	1.57	0.907	0.821	1.18	1.5	1.22	1.32
KILTHYKQPHT [KMT2D_Y5349_R5351Q]	0.763	0.364	0.403	0.437	0.412	0.384	0.565	0.478	0.46	0.726	0.506	1.18	0.416	1.05	0.998	0.907
MGCVNYGAFIN [GLB1_Y485_R482C_YF]	1.05	0.69	0.617	0.531	0.825	0.522	1.26	0.553	0.532	1.14	0.606	1.01	1.19	0.752	0.793	0.514
KNITEYCRDLI [RECQL_Y492]	0.877	0.544	0.606	0.476	0.691	0.502	1.05	0.477	0.471	0.791	0.397	0.66	0.42	0.99	0.762	0.68
GREAEYSDKHG [EPHB4_Y574]	0.64	0.392	0.44	0.388	0.547	0.472	0.821	0.773	0.354	0.582	0.39	0.571	0.405	0.809	0.618	0.402
MSRDVYSTDCY [NTRK2_Y702_Y706C]	0.993	0.718	0.701	0.726	0.766	0.631	1.14	2.1	0.972	1.06	1.51	0.993	2.32	1.15	0.719	0.932
HHTDEYEFDEL [TGM1_Y134_YF]	1.38	0.909	0.936	1.07	0.852	0.622	1.3	0.725	0.697	1.09	0.445	0.96	0.745	1.45	1.73	0.43
VDTAMYATMQR [TPO_Y55]	0.697	0.568	0.672	0.518	0.507	0.519	0.706	3.02	5.09	0.531	0.764	0.705	3.92	0.878	0.764	1.55
TLQTMYGCDVG [HLA-B_Y123_S121T]	1.13	0.909	0.589	0.556	0.772	0.838	1.15	0.554	0.579	0.979	0.647	0.849	0.68	0.854	0.729	0.545
ERDYTYEELLN [EIF2S2_Y176]	1.31	0.78	0.718	0.579	0.855	0.65	1.28	0.886	1.32	1.18	0.426	0.67	0.807	0.823	0.737	1.1
HELFVYKSDEN [DOCK3_Y548_C550S_YF]	1.87	0.706	0.84	0.94	1.13	0.927	2	0.734	0.66	2.04	0.505	1.11	0.616	0.973	0.662	0.604
VGTKRYRAPEV [ACVRL1_Y375_M376R]	0.443	0.308	0.338	0.298	0.363	0.364	0.565	0.379	0.305	0.351	0.339	0.499	0.335	0.892	0.861	0.528

Sequence	phosphorylation enrichment (AncSZ)	phosphorylation enrichment (EPHB1)	phosphorylation enrichment (EPHB2)	phosphorylation enrichment (FGFR1)	phosphorylation enrichment (FGFR3)	phosphorylation enrichment (Fer (mouse))	phosphorylation enrichment (Fes)	phosphorylation enrichment (Fyn)	phosphorylation enrichment (Hck)	phosphorylation enrichment (Jak2)	phosphorylation enrichment (MERTK)	phosphorylation enrichment (c-Abl (mouse))	phosphorylation enrichment (c-Src)	SH2 binding enrichment (Grb2 SH2)	SH2 binding enrichment (SHP2-C SH2)	SH2 binding enrichment (c-Src SH2)
SSNTEYLSASD [INSR_Y999_P997T]	0.884	0.393	0.573	0.518	0.615	0.48	0.746	0.52	0.501	0.82	0.435	0.556	0.474	0.689	0.573	0.547
LLKKMYLMLDN [STAT1_Y203]	0.883	0.571	0.381	0.395	0.721	0.521	0.996	0.38	0.434	0.939	0.401	0.643	0.305	1.14	1.24	0.957
DSFATYFRWVL [H2BW1_Y84_R87W]	1.53	1.85	3.54	1.98	1.98	2.46	1.47	2.76	5.6	5.48	4.5	1.04	3.21	1.28	1.32	0.953
SSNLYYRWLTA [CNGA3_Y169]	1.04	1.52	1.91	6.93	6.24	1.98	0.897	2	4.9	4.69	8.61	3.22	2.87	0.791	0.763	0.545
RGYRQDAYDGK [HLA-A_Y140]	0.773	0.519	0.546	0.641	0.509	0.764	0.677	0.671	0.591	0.859	0.436	0.859	0.526	1.3	0.458	0.517
IKNSGYISQYL [EIF2AK3_Y585_R588Q]	0.593	0.414	0.375	0.443	0.458	0.323	0.783	0.427	0.39	0.617	0.374	0.435	0.406	0.939	0.969	0.628
DFPGNYSGFDD [POLR1C_Y33_YF]	0.858	0.927	0.531	0.456	0.637	0.408	0.899	0.55	0.481	0.676	0.376	0.588	0.548	0.839	0.815	0.806
DYDHSYYFIAT [ESD_Y262_G257D]	2.9	5.16	3.27	11.7	9.9	1.49	1.13	1.48	2.24	7.22	3.77	0.877	1.81	0.684	0.589	0.456
KFVVVYFRETD [IL17RB_Y447_I451T_YF]	1.36	0.637	0.597	0.512	0.734	0.484	1.23	0.463	0.57	1.11	0.417	0.734	0.377	2.19	1.55	1.33
SRVNKYSTAFG [GJB3_Y16_G12R]	0.571	0.426	0.347	0.383	0.489	0.499	0.633	0.371	0.344	0.644	0.406	0.584	0.383	1.02	1.3	0.896
GGDAVYTNGAI [RFX2_Y82]	0.654	0.425	0.486	0.484	0.532	0.5	0.638	1.3	1.34	0.494	0.359	0.443	1.09	0.995	0.594	0.491
FAKTQYPDIFA [CRX_Y63_V66I_YF]	0.667	0.426	0.373	0.378	0.528	0.517	0.922	0.434	0.387	0.483	0.489	0.542	0.415	0.849	0.529	0.456
EQKRFYNAMKK [SCN5A_Y1495_K1493R_YF]	0.69	0.562	0.309	0.369	0.415	0.35	0.711	0.363	0.342	0.562	0.387	0.698	0.441	0.772	0.758	0.86
QRRFLYFFSFL [PTEN_Y176_V175L_YF]	1.61	0.761	0.817	0.978	1.16	0.862	1.85	0.795	0.68	1.5	0.886	1.09	0.567	1.05	0.779	0.774
SQETFYRVSNM [ABCD1_Y181_Q178E_YF]	0.61	0.412	0.528	0.386	0.473	0.443	0.763	0.396	0.457	0.7	0.448	0.86	0.49	0.836	0.807	0.597
PECEWYKNGVK [TTN_Y2112]	1.55	0.759	1.05	0.821	1.19	0.719	1.96	0.692	0.73	1.32	0.532	1.31	0.555	0.811	0.472	0.39
